# Assay results reported in PMC10786891, “Massively parallel profiling of RNA-targeting CRISPR-Cas13d”.
# T1: EsCas13d, nuclease-dead (Eubacterium siraeum, UniProt B0MS50, R295A;H300A;R849A;H854A)
# T1 sequence: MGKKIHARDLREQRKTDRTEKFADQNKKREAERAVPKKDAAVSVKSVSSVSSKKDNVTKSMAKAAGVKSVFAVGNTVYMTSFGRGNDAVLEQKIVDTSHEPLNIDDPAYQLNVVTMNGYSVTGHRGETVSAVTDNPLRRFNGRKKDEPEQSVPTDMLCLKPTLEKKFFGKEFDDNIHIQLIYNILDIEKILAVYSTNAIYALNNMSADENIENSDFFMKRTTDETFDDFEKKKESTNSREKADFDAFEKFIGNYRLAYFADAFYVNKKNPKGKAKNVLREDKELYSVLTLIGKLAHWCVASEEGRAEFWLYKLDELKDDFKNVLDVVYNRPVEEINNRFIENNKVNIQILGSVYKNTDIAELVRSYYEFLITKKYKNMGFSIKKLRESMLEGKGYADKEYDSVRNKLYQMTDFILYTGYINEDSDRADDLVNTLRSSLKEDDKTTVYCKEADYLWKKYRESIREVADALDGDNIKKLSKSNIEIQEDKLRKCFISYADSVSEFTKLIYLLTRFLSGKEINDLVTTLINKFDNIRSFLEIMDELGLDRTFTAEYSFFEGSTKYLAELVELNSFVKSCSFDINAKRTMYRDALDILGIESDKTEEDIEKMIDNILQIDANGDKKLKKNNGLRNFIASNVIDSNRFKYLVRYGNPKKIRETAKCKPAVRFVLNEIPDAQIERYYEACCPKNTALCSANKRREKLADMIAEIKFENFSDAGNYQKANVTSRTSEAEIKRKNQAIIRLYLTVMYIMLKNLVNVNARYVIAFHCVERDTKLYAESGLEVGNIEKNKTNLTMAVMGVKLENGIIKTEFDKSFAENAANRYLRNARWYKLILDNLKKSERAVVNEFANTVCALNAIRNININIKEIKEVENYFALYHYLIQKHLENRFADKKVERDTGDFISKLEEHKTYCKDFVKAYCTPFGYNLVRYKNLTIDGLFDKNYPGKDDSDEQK
# B1: target 1 insG 3' of 22,insG 3' of 4 (mixed)
# RNA 1: CACCCGUGCAAAAAUGCAGGGGUCUAAAACUGAGCGGAUAACCUCUCUAUGG
# RNA 2: GGGAAUGGAUCCACAUCUACGAAUUCGUACGCAUAGAGAGGUUAUCCGCGUCACCGAGAUCGGAAGAGCACACGU
# B2: target 2 MT 5'PFS UUA 3'PFS AUU (mixed)
# RNA 1: CACCCGUGCAAAAUUGCAGGGGUCUAAAACCUUCUCCAAAUUGUUUCAUCCU
# RNA 2: GGGAAUGGAUCCACAUCUACGAAUUCUUAAGGAUGAAACAAUUUGGAGAAGAUUAGAUCGGAAGAGCACACGU
# B3: target 2 MT 5'PFS ACU 3'PFS CGU (mixed)
# RNA 1: CACCCGUGCAAAAUUGCAGGGGUCUAAAACCUUCUCCAAAUUGUUUCAUCCU
# RNA 2: GGGAAUGGAUCCACAUCUACGAAUUCACUAGGAUGAAACAAUUUGGAGAAGCGUAGAUCGGAAGAGCACACGU
# B4: target 2 MT 5'PFS CUU 3'PFS UAG (mixed)
# RNA 1: CACCCGUGCAAAAUUGCAGGGGUCUAAAACCUUCUCCAAAUUGUUUCAUCCU
# RNA 2: GGGAAUGGAUCCACAUCUACGAAUUCCUUAGGAUGAAACAAUUUGGAGAAGUAGAGAUCGGAAGAGCACACGU
# B5: target 2 MT 5'PFS AGA 3'PFS AUA (mixed)
# RNA 1: CACCCGUGCAAAAUUGCAGGGGUCUAAAACCUUCUCCAAAUUGUUUCAUCCU
# RNA 2: GGGAAUGGAUCCACAUCUACGAAUUCAGAAGGAUGAAACAAUUUGGAGAAGAUAAGAUCGGAAGAGCACACGU
# B6: target 2 MT 5'PFS CUU 3'PFS UAC (mixed)
# RNA 1: CACCCGUGCAAAAUUGCAGGGGUCUAAAACCUUCUCCAAAUUGUUUCAUCCU
# RNA 2: GGGAAUGGAUCCACAUCUACGAAUUCCUUAGGAUGAAACAAUUUGGAGAAGUACAGAUCGGAAGAGCACACGU
# B7: target 2 MT 5'PFS CUU 3'PFS UAA (mixed)
# RNA 1: CACCCGUGCAAAAUUGCAGGGGUCUAAAACCUUCUCCAAAUUGUUUCAUCCU
# RNA 2: GGGAAUGGAUCCACAUCUACGAAUUCCUUAGGAUGAAACAAUUUGGAGAAGUAAAGAUCGGAAGAGCACACGU
# B8: target 2 MT 5'PFS GGG 3'PFS CUA (mixed)
# RNA 1: CACCCGUGCAAAAUUGCAGGGGUCUAAAACCUUCUCCAAAUUGUUUCAUCCU
# RNA 2: GGGAAUGGAUCCACAUCUACGAAUUCGGGAGGAUGAAACAAUUUGGAGAAGCUAAGAUCGGAAGAGCACACGU
# B9: target 2 MT 5'PFS GGU 3'PFS AGU (mixed)
# RNA 1: CACCCGUGCAAAAUUGCAGGGGUCUAAAACCUUCUCCAAAUUGUUUCAUCCU
# RNA 2: GGGAAUGGAUCCACAUCUACGAAUUCGGUAGGAUGAAACAAUUUGGAGAAGAGUAGAUCGGAAGAGCACACGU
# B10: target 2 MT 5'PFS GGG 3'PFS CUG (mixed)
# RNA 1: CACCCGUGCAAAAUUGCAGGGGUCUAAAACCUUCUCCAAAUUGUUUCAUCCU
# RNA 2: GGGAAUGGAUCCACAUCUACGAAUUCGGGAGGAUGAAACAAUUUGGAGAAGCUGAGAUCGGAAGAGCACACGU
# B11: target 2 MT 5'PFS CUU 3'PFS UAU (mixed)
# RNA 1: CACCCGUGCAAAAUUGCAGGGGUCUAAAACCUUCUCCAAAUUGUUUCAUCCU
# RNA 2: GGGAAUGGAUCCACAUCUACGAAUUCCUUAGGAUGAAACAAUUUGGAGAAGUAUAGAUCGGAAGAGCACACGU
# B12: target 2 MT 5'PFS GGG 3'PFS CUC (mixed)
# RNA 1: CACCCGUGCAAAAUUGCAGGGGUCUAAAACCUUCUCCAAAUUGUUUCAUCCU
# RNA 2: GGGAAUGGAUCCACAUCUACGAAUUCGGGAGGAUGAAACAAUUUGGAGAAGCUCAGAUCGGAAGAGCACACGU
# B13: target 2 MT 5'PFS GGG 3'PFS CUU (mixed)
# RNA 1: CACCCGUGCAAAAUUGCAGGGGUCUAAAACCUUCUCCAAAUUGUUUCAUCCU
# RNA 2: GGGAAUGGAUCCACAUCUACGAAUUCGGGAGGAUGAAACAAUUUGGAGAAGCUUAGAUCGGAAGAGCACACGU
# Biological target: T1, EsCas13d, nuclease-dead
# Experiment: crRNA (strand 1, pre-loaded); Mg2+; 40 mM Tris-HCl pH 7.5, 150 mM NaCl, 6 mM MgCl2, 1 mM DTT, 0.1% Tween-20, 0.2 mg/ml BSA; 25 C; 10 min per concentration, then washed
# Settings: tags: His6-TwinStrep-SUMO cleaved; N-terminal SNAP kept (SNAP-Surface 488); label: 3' end held by stalled T7 RNA polymerase
row,Binder,Kd [nM]
1,B1,26.2 ± 2.8
2,B2,18.5 ± 1.4
3,B3,8.1 ± 1.3
4,B4,4.3 ± 0.8
5,B5,~5.7
6,B6,4.9 ± 0.6
7,B7,3 ± 0.32
8,B8,10.9 ± 1.9
9,B9,17.7 ± 2.6
10,B10,11.7 ± 1
11,B11,3.22 ± 0.27
12,B12,15.5 ± 1.6
13,B13,14.2 ± 1.4
